Target: T1, 57NAAT1like (second extracellular loop of Spodoptera frugiperda sodium-dependent nutrient amino acid … (Spodoptera frugiperda))
T1 construct: 57 aa antigen; also called NAAT antigen
T1 chain: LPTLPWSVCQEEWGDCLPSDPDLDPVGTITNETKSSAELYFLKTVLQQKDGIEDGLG
Test: ELISA of periplasmic extracts on passively coated non-biotinylated 57NAAT1like

Binder	binding result
NAAT monospecific nanobody #10 (VHH, Llama VHH; also called NAAT10) VHH: QVQLQESGGGLVQAGGSLTLSCAFSGRTFTHYAMAWFRQAPGKERKFVAGVTRSGPNTYYDDSVQGRFTISRDNAKNTVYLHMNSLKPEDTAVYYCAANSGVVSGYDYWGQGTQVTVSS	binds
NAAT monospecific nanobody #29 (VHH, Llama VHH; also called NAAT29) VHH: QVQLQESGGGVVQTGGSLTLSCKASRRTSGFAMAWFRQAPGMEREFVAGIGRTGDNIHYLDSVKGRFTISRDNTKNTLSLQMNNLKPEDTAVYYCLRTMGGTWSEKGQGTQVTVSS	binds
NAAT monospecific nanobody #5 (VHH, Llama VHH; also called NAAT5) VHH: QVQLQESGGGLVQPGGSLRLACVLSGGPSSSYGVGWFRQRSGTEREFVAAISGSGRTIHYVDDVKGRFAISRDSAKNAVDLQMNNLKPEDTAVYYCAALALVTTHPTSNVGEWDYWGQGTQVTVSS	binds
NAAT monospecific nanobody #6 (VHH, Llama VHH; also called NAAT6) VHH: QVQLQESGGGVVQTGGSLTLSCKASRRTSGFAMAWFRQAPGMEREFVAGIGRTGDNIHYLDSVKGRFTISRDNTKNTLSLQMNSLKSEDTAVYYCAKVVVVAGSPSFDAWGQGTQVTVSS	binds
NAAT monospecific nanobody #1 (VHH, Llama VHH; also called NAAT1) VHH: QVQLQESGGGLVQAGGSLRLSCAASGRTFSRYAMGWFRQALGKEREFVAGINWSGSMTYYADSVKGRFTISRDNAKNMLYLQMNSLKSEDTAVYYCAGVTVVGGAPAFDYWGQGTQVTVSS	binds
NAAT monospecific nanobody #2 (VHH, Llama VHH; also called NAAT2) VHH: QVQLQESGGGVVQTGGSLTLSCKASRRTSGFAMAWFRQAPGMEREFVAGIGRTGDNIHYLDSVKGRFTISRDNTKNTLSLQMNSLRPGDTAVYYCAADVTKSGFIYWGQGTQVTVSS	binds

Target: T2, tagless FAW Cadherin antigen (Spodoptera frugiperda)
T2 construct: the batch used for panning is called tagless; also called Sp.f Cadherin
T2 chain: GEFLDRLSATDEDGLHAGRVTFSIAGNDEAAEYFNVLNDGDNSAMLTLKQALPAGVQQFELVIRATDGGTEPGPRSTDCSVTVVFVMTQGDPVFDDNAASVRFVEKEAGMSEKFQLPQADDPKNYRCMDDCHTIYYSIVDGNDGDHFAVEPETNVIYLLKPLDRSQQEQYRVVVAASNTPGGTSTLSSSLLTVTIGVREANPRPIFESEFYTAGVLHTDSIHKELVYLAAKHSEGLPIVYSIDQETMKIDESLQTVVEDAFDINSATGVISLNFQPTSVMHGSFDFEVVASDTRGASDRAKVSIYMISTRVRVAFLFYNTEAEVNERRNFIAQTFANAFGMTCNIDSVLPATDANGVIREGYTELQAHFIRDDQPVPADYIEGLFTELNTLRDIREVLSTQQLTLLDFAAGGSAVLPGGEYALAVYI
Test: screen of colonies after 3 rounds of phage panning on solid-phase coated tagless FAW Cadherin antigen

Binder	binding result
Cadherin monospecific nanobody #2 (VHH, Llama VHH; also called Cad2) VHH: QVQLQESGGGLVQAGASLRLSCAASRRTGSSLTMGWFRQAPGKEREFVAAISRSGIRTYYADFVKGRFTISRDNAKNTLYLQMNSLKPEDTAVYYCAANDKTYGSGLDVYTRRQNYYYWGPGTQVTVSS	binds
Cadherin monospecific nanobody #43 (VHH, Llama VHH; also called Cad43) VHH: QVQLQESGGGLAQAGASLRLSCAASRRTGSSLTMGWFRQAPGKEREFVAAISRSGIRTYYADFVKGRFTISRDNAKNTLYLQMNSLKPEDTAVYYCAANDKTYGSGLDVYTRRQDYYYWGPGTQVTVSS	binds
Cadherin monospecific nanobody #48 (VHH, Llama VHH; also called Cad48) VHH: QVQLQESGGGLVQAGASLRLSCAASRRTGSSLTMGWFRQAPGREREFVAAISRSGIRTYYADFVKGRFTISRDNAKNTLYLQMNSLKPEDTAVYYCAANDKTYGSGLDVYTRRQDYYYWGPGTQVTVSS	binds
Cadherin monospecific nanobody #50 (VHH, Llama VHH; also called Cad50) VHH: QVQLQESGGGLVQAGASLRLSCAASRRTGSSLTMGWFRQAPGKEREFVAAISRSGIRTYYADFVKGRFTISRDNGENTLYLQINSLKPEDTAVYYCAASSNPGYYRTAPNQYNFWGPGTQVTVSS	binds
Cadherin monospecific nanobody #46 (VHH, Llama VHH; also called Cad46) VHH: QVQLQESGGGSVQAGGSLKLSCAASGTESIFIVMGWYRQAPGKERELVAAMSFGGGTNVTDGVRGRFTISRDFDKNTVDLQMNNLKTEDTAVYYCNAVQWGPRDYWGQGTQVTVSS	binds
